# Results: publication PMC3185043, “A SILAC-Based Screen for Methyl-CpG Binding Proteins Identifies RBP-J as a DNA Methylation and Sequence-Specific Binding Protein”
# B1: GSTP1 CpG-island oligo, methylated (EMSA) (dsDNA)
# DNA 1: AAGCAGACACTGGCAGGTTTCGGCGGGAGTCCGCGGGACCCTCCAGAAGAGCGGCCGGCGCCGTGACCTAAGGCTAAGGCTCATA
# DNA 2: TTTATGAGCCTTAGCCTTAGGTCACGGCGCCGGCCGCTCTTCTGGAGGGTCCCGCGGACTCCCGCCGAAACCTGCCAGTGTCTGC
# modifications: 5-methylcytosine at CpG (M.SssI)
# What was measured:
# [1] = target: MBD2b (GST-tagged, purified) (Homo sapiens, UniProt Q9UBB5 150-411); assay: EMSA; multiple shifts; EMSA: 20 mM HEPES pH 7.9, 1 mM EDTA, 3 mM MgCl2, 10 mM beta-mercaptoethanol, 10% glycerol, 0.1% Triton X-100, 2 ug BSA, 10 ng poly(dI-dC), 30 min on ice; pull-down: 150 mM NaCl, 50 mM Tris pH 8.0, 0.25% NP40, 0.5 mM DTT, poly(dI-dC), 2 h 4 C; conditions: protein: recombinant; tags: GST; label: 32P
# [2] = target: RBP-J (GST-tagged, purified) (Homo sapiens, UniProt Q06330 1-500); assay: EMSA; multiple shifts; supershift with one of two antibodies; EMSA: 20 mM HEPES pH 7.9, 1 mM EDTA, 3 mM MgCl2, 10 mM beta-mercaptoethanol, 10% glycerol, 0.1% Triton X-100, 2 ug BSA, 10 ng poly(dI-dC), 30 min on ice; pull-down: 150 mM NaCl, 50 mM Tris pH 8.0, 0.25% NP40, 0.5 mM DTT, poly(dI-dC), 2 h 4 C; conditions: protein: recombinant; tags: His/GST; label: 32P
# Sequence of RBP-J (GST-tagged, purified) (Q06330 whole entry): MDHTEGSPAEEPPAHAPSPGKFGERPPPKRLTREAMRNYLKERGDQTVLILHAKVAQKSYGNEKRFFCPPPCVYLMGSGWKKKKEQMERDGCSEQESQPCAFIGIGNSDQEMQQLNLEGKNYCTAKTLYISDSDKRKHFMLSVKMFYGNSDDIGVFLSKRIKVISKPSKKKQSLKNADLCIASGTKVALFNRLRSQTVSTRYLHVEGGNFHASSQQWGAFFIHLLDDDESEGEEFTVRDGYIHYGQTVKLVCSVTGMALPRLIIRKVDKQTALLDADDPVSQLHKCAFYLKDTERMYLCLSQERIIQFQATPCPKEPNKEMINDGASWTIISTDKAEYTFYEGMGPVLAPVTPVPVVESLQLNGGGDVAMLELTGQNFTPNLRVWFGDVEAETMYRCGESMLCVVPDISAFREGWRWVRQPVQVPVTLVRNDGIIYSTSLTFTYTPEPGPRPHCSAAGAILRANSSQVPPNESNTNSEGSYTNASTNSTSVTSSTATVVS
# Sequence of MBD2b (GST-tagged, purified) (Q9UBB5 150-411): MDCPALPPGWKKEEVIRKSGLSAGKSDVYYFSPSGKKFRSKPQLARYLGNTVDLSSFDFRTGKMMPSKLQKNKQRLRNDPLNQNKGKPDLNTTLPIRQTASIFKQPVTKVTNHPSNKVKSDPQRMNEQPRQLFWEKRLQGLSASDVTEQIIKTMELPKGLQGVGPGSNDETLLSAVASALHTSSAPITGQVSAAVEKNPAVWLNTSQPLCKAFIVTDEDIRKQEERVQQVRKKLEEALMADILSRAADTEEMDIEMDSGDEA
binder,measurement,setting,value
B1,binding result,[1],binds
same,binding result,[2],binds
